By stoichiometry N is commonly meant a count of units in the complex or per binding partner. The term Kd denotes the free concentration of one partner at which half of the binding sites on the other are occupied at equilibrium, for simple one-to-one binding. The low end stands for higher affinity, the high end for lower affinity. As a reminder, the koff is a measure of how fast the partners let go of each other. The low end stands for slow dissociation, the high end for fast dissociation.

We go through five molecules from publication PMC7966745, “Elucidation of transient protein-protein interactions within carrier protein-dependent biosynthesis” (Communications Biology, 2021).

B3: FabI, enoylreductase of E. coli fatty acid biosynthesis (enzyme)
chain: MGFLSGKRILVTGVASKLSIAYGIAQAMHREGAELAFTYQNDKLKGRVEEFAAQLGSDIVLQCDVAEDASIDTMFAELGKVWPKFDGFVHSIGFAPGDQLDGDYVNAVTREGFKIAHDISSYSFVAMAKACRSMLNPGSALLTLSYLGAERAIPNYNVMGLAKASLEANVRYMANAMGPEGVRVNAISAGPIRTLAASGIKDFRKMLAHCEAVTPIRRTVTIEDVGNSAAFLCSDLSAGISGEVVHVDGGFSIAAMNELELK
notes: FabI enoyl-ACP reductase, E. coli; titrated with 0.5 mM NAD+ in the buffer; also called ER; source: E. coli BL21 (DE3), purified (Ni-IMAC, Superdex 75)
B5: octanoyl-AcpP (15N-C8-AcpP), E. coli acyl carrier protein (natural protein)
chain: STIEERVKKIIGEQLGVKQEEVTNNASFVEDLGADSLDTVELVMALEEEFDTEIPDEEAEKITTVQAAIDYINGHQA
modifications: octanoyl pantethenamide probe loaded as a 4'-phosphopantetheine analog (amide linked octanoyl) on S36; uniformly 15N labeled and perdeuterated
notes: Acyl carrier protein AcpP of E. coli; Grown on a His-tagged pET-22b vector; also called amide linked octanoyl AcpP; source: E. coli BL21 (DE3), M9 minimal media with 15N NH4Cl and D2O, purified; made apo with ACPH, then loaded with an octanoyl pantethenamide probe (CoaA, CoaD, CoaE, Sfp)

Holding throughout (details): both partners purified
Experiment [1] has as its target B5. Kind of experiment: NMR titration; 1H-15N HSQC of perdeuterated 15N-C8-AcpP with increasing unlabeled partner protein, five points; TITAN 2D lineshape analysis, flexible stoichiometry model, error from 300 bootstrap steps; 37 °C, 10 mM potassium phosphate pH 7.4, 0.5 mM TCEP, 0.5 mM NAD+, 0.1% NaN3.
Experiment [2] has as its target T1, octanoyl-AcpP (C8-AcpP), E. coli acyl carrier protein (E. coli, UniProt P0A6A8 2-78, octanoyl pantethenamide probe loaded (stable C8 acyl analog); uniformly 15N labeled and perdeuterated).
T1 construct: acyl carrier protein AcpP, E. coli; PDB 2FAD is heptanoyl-AcpP, used for docking only; also called 15N-C8-AcpP; source: E. coli BL21 (DE3), M9 minimal media with 15N NH4Cl and D2O, purified; made apo with P. aeruginosa ACPH, then loaded with CoaA, CoaD, CoaE and Sfp
Kind of experiment: NMR titration; 1H-15N HSQC of 15N, perdeuterated C8-AcpP titrated with unlabeled partner, at least five points; 37 °C; 10 mM potassium phosphate pH 7.4, 0.5 mM TCEP, 0.5 mM NAD+, 0.1% NaN3; TITAN 2D lineshape analysis, flexible stoichiometry model.

Experiment [3] concerns the target B3. Kind of experiment: NMR titration; 1H-15N HSQC of perdeuterated 15N-C8-AcpP with increasing unlabeled partner protein, five points; TITAN 2D lineshape analysis, flexible stoichiometry model, error from 300 bootstrap steps; 37 °C, 10 mM potassium phosphate pH 7.4, 0.5 mM TCEP, 0.5 mM NAD+, 0.1% NaN3.
For experiment [4], the target named is T2, FabF, elongating ketosynthase of E. coli fatty acid biosynthesis (E. coli, UniProt P0AAI5 2-413).
T2 construct: FabF ketosynthase (3-oxoacyl-ACP synthase 2), E. coli; also called KS; source: E. coli BL21 (DE3), purified (Ni-IMAC, Superdex 75)
T2 sequence: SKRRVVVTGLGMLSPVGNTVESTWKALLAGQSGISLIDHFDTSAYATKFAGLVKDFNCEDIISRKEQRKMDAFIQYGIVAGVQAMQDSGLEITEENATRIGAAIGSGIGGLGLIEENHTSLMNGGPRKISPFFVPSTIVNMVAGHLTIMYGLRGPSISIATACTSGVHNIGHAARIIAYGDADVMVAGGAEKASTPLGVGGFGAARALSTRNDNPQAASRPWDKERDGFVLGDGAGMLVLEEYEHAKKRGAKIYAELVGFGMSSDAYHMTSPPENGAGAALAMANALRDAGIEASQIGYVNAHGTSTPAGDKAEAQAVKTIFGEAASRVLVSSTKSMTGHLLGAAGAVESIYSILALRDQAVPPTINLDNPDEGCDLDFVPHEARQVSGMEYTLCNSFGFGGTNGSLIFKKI
The experiment in a line: NMR titration; 1H-15N HSQC of perdeuterated 15N-C8-AcpP with increasing unlabeled partner protein, five points; TITAN 2D lineshape analysis, flexible stoichiometry model, error from 300 bootstrap steps; 37 °C, 10 mM potassium phosphate pH 7.4, 0.5 mM TCEP, 0.1% NaN3.

For experiment [5], the target named is T3, TesA, E. coli thioesterase (E. coli, UniProt P0ADA1 27-208).
T3 construct: TesA thioesterase 1, E. coli; the natural protein is periplasmic; source: E. coli BL21 (DE3), purified (Ni-IMAC, Superdex 75)
T3 sequence: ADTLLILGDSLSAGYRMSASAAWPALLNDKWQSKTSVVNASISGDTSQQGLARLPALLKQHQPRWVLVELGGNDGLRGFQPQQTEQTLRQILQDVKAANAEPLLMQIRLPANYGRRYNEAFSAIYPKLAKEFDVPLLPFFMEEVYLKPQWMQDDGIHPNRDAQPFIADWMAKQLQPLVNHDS
Described as above.

B1: FabG, ketoreductase of E. coli fatty acid biosynthesis (enzyme)
chain: MNFEGKIALVTGASRGIGRAIAETLAARGAKVIGTATSENGAQAISDYLGANGKGLMLNVTDPASIESVLEKIRAEFGEVDILVNNAGITRDNLLMRMKDEEWNDIIETNLSSVFRLSKAVMRAMMKKRHGRIITIGSVVGTMGNGGQANYAAAKAGLIGFSKSLAREVASRGITVNVVAPGFIETDMTRALSDDQRAGILAQVPAGRLGGAQEIANAVAFLASDEAAYITGETLHVNGGMYMV
notes: FabG 3-oxoacyl-ACP reductase, E. coli; titrated with 0.5 mM NAD+ in the buffer; also called KR; source: E. coli BL21 (DE3), purified (Ni-IMAC, Superdex 75)
Consider B1, for which the “stoichiometry N” value in experiment [1] stood at 2.2.

B2: FabG, E. coli ketoreductase (enzyme)
chain: MNFEGKIALVTGASRGIGRAIAETLAARGAKVIGTATSENGAQAISDYLGANGKGLMLNVTDPASIESVLEKIRAEFGEVDILVNNAGITRDNLLMRMKDEEWNDIIETNLSSVFRLSKAVMRAMMKKRHGRIITIGSVVGTMGNGGQANYAAAKAGLIGFSKSLAREVASRGITVNVVAPGFIETDMTRALSDDQRAGILAQVPAGRLGGAQEIANAVAFLASDEAAYITGETLHVNGGMYMV
notes: ketoreductase FabG (3-oxoacyl-ACP reductase), E. coli; Titrated with 0.5 mM NAD+ present; also called KR; source: E. coli BL21 (DE3), purified (Ni-IMAC, Superdex 75)
On to B2, for which the “stoichiometry N” value in experiment [2] was 2.
As for B3, the “stoichiometry N” value in experiment [1] was determined as 1.2.

B4: FabI, E. coli enoylreductase (enzyme)
chain: MGFLSGKRILVTGVASKLSIAYGIAQAMHREGAELAFTYQNDKLKGRVEEFAAQLGSDIVLQCDVAEDASIDTMFAELGKVWPKFDGFVHSIGFAPGDQLDGDYVNAVTREGFKIAHDISSYSFVAMAKACRSMLNPGSALLTLSYLGAERAIPNYNVMGLAKASLEANVRYMANAMGPEGVRVNAISAGPIRTLAASGIKDFRKMLAHCEAVTPIRRTVTIEDVGNSAAFLCSDLSAGISGEVVHVDGGFSIAAMNELELK
notes: enoylreductase FabI (enoyl-ACP reductase [NADH]), E. coli; Titrated with 0.5 mM NAD+ present; also called ER; source: E. coli BL21 (DE3), purified (Ni-IMAC, Superdex 75)
As for B4, the “stoichiometry N” value in experiment [2] is about 1.
Consider B5, for which the Kd was found to be 1.6 µM in experiment [3], 6.9 µM in experiment [4] and 13 µM in experiment [5]. For the same molecule, the results for the koff in experiment [3], in experiment [4] and in experiment [5] were 6360 s⁻¹, 3350 s⁻¹ and 9750 s⁻¹, respectively.
